According to patent publication US20240239886A1 (YEDA RESEARCH AND DEVELOPMENT, published 2024):
Where two headings read alike, the source gives them in different places.

B1: 60H4A3 (antibody, V domains shown)
VH: EVQLQESGPELVKPGASVKMSCKASGYTFTDYNMHWVKQSHGKSLEWIGYIYPNNGGTGYNQKFKGKATLTVNKSSSTAYMELRSLTSEDSAVYYCARSGRGFAYWGQGTLVTVSA
VL: DIVMTQSPASLSVTPGDRVSLSCRASQSISDYLHWYQQKSHESPRLLIKYASQSISGIPSRFSGSGSGSDFTLSINSVEPEDVGVYYCQNGHSFPYTFGGGTKLEIK
notes: Biotin conjugated in sup ELISA, cell-based ELISA and flow cytometry
B2: 60H4G2 (antibody, V domains shown)
VH: B1 VH
VL: DIVMTQSTSSLTVTAGEKVTMSCKSSQSLLNSGNQKNYLTWYQQKPGQPPKLLIYWASSRESGVPDRFTGRGSGTDFTLTISSVQAEDLAVYYCQNDYSYPFTFGSGTKLEIK
notes: as for B1
B3: 61B11C9 (antibody, V domains shown)
VH: QLQESGPEQVKPGASVKMSCRTSGYTFTAYNMHWVKQRLGKSLEWIGYIRPTNGDTRYNRRFRDKATLTVDKSSSTTYMELRSLTSEDSAVYYCTRSTTVASFDYWGQGTTLTVSS
VL: DIVMTQTTSSLTVSVGQKITLNCKSSQSLLYTNNQKNFLAWYQQKPGQSPKLLIYWASTRDSGVPDRFTGSGSGTDFTLTITSVMAEDLAVYFCQQYYDFPPTFGGGTKLEIK
notes: as for B1
B4: 83E10B12 (antibody, V domains shown)
VH: QVQLQESGPELVKPGASVKISCKASGYIFSYSWMNWVKQRPGKGLEWIGRIYPGDGDADYNGKFKGKATLTADKSSNTAYMQLTSLTSEDSAVYFCARLHIYDGYYVSVYWGQGTLVTVSA
VL: DIQMTQTTSCLSASLGDRVTISCRASQDINNYLSWYQQKPDGTVKLLIYYTSKLHSGVPSRFSGSGSGTDYSLTIGNLEQEDVATYFCQQGDTLPWTFGGGTRLEIK
notes: as for B1
B5: 80E3C7 (antibody, V domains shown)
VH: QVQLQQPGAEPLKPGASVKMSCEASGYTFTNFWITWMKLRPGQGLEWIGDIYPGTGNTNYNEKFKSRATLTVDTSSTTAYMQLSSLTSEDSAVYYCAREAYYTNPGFAYWGHGTLVTVSA
VL: DVLMTQSPLSLPVNLGDQASISCKSSQNIVHSNGNTYLEWYLQRPGQSPKLLIYKVSNRFSGVPDRFSGSGSGTDFTLKISRVEAEDLGVYYCFQGSHVPYTFGGGTKLEIK
notes: Biotin conjugated in sup ELISA, cell-based ELISA and flow cytometry; also called anti-TREM2 antibody (E3C7); TREM2 Ab E3C7

Legend:
[1] = target: T1, recombinant protein consisting of the extracellular domain of human TREM2 fused to the His tag (human, UniProt Q9NZC2 19-174); test: direct ELISA; highest dilution with S/B >= 2.1
T1 construct: also called His tagged hTREM2; His-TREM2
T1 sequence: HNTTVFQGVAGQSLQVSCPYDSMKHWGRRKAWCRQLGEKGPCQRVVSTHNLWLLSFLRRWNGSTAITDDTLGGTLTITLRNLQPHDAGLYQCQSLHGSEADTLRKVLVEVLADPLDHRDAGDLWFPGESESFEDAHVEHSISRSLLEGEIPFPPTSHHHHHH
Procedure: (§1) Ninety six-Well ELISA microplate was coated with 0.5 μg/mL, 100 μl/well His tagged hTREM2 diluted in PBS pH 7.4, and incubated at 4° C. overnight. The plate was rinsed three times with 0.05% tween20 in PBS, blocked with 1% BSA in PBS at room temperature (RT) for 1 hr, and rinsed again. The plates was incubated with the anti hTREM2 antibodies (100 μl/well) for 2 hrs at indicated concentration, at RT. Plate was rinsed and incubated with Peroxidase-AffiniPure Goat anti Mouse IgG, Fcg fragment specific (min X Hu, Bov, Hrs, Sr Prot; Jackson ImmunoResearch) for 20 min at RT. The plate was rinsed and incubated with TMB Reagent (TM4500, Scytek) for 20 min at RT, followed by the addition of Stop Solution 2N Sulfuric Acid (DY994, R&D). OD was measured using an ELISA plate reader at dual wavelengths (450 nm and 570 nm)
(§2) Purity is measured by SDS-PAGE. Quantity of endotoxin (EU/mg) is measured by LAL assay. Titer measured by direct ELISA, while the title value is the highest dilution with S/B (Signal/Blank) >= 2.1

[2] = target: T2, human TREM2 (hTREM2) on cells (human, UniProt Q9NZC2 19-230); test: flow cytometry on BMDM
T2 construct: also called hTREM2 expressing HEK293
T2 sequence: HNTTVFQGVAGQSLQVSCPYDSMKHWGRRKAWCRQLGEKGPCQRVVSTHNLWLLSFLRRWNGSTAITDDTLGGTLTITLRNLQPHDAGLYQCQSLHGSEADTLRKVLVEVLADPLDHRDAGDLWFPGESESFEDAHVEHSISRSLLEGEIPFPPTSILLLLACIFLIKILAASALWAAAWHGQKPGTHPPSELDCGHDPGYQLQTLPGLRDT
Procedure: TREM2 KO and hTREM2 BMDM were washed with MACS buffer (PBS pH 7.2, 0.5% BSA and 2 mM EDTA) and stained with biotin conjugated anti hTREM2 antibodies (10 μg/mL) followed by Washing with MACS buffer and APC-streptavidin (Biolegend, 405207) incubation, then analyzed by flow cytometer (LSRII, BD).

soluble TREM2 protein = target: T3, soluble TREM2 protein (human, UniProt Q9NZC2 19-157); test: sup ELISA, hTREM2 vs WT 293HEK supernatant
T3 construct: also called TREM2 in cell culture supernatant (Sup)
T3 sequence: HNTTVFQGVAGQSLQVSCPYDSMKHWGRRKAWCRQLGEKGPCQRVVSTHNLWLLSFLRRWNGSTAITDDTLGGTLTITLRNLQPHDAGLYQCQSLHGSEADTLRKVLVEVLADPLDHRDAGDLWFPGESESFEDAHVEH
Procedure: Supernatant was collected, centrifuged for 5 min at 900 g and filtered (0.45 μm). Ninety six-well ELISA microplate was coated with 0.2 μg/well of anti human TREM2 Antibody (AF1828, R&D) diluted in PBS, and incubated at 4° C. overnight. The plate was rinsed three times with 0.05% tween20 in PBS, blocked with 1% BSA in PBS at room temperature (RT) for 1 hr, and rinsed again. The plates was incubated with the cell culture supernatant (100 μl/well) for 2 hrs at RT for and rinsed again. The plate was incubated with 0.1 μg biotinylayed anti hTREM2 antibodies for 2 hrs at RT. After incubation, the plate was rinsed and incubated with streptavidin-HRP (DY998, R&D) for 20 min at RT. The plate was rinsed and incubated with TMB Reagent (TM4500, Scytek) for 20 min at RT, followed by the addition of Stop Solution 2N Sulfuric Acid (DY994, R&D). OD was measured using an ELISA plate reader at dual wavelengths (450 nm and 570 nm)
(§3) A. Cells culture supernatant (Sup) was used for soluble TREM2 protein binding capability test of 18 hybridoma derived monoclonal antibodies by direct ELISA. B. Cells were captured in 96 wells plate and were used for cell based ELISA of 18 hybridoma derived monoclonal antibodies. OD values positive cells (hTREM2 expressing HEK293) and negative cells (WT HEK293) are showing in the table.

[3] = target: T2, human TREM2 (hTREM2) on cells; test: cell-based ELISA, hTREM2 vs WT 293HEK cells
Procedure: Cells were washed three times with PBS and blocked (5% FBS, 1% BSA in PBS) for 2 hrs at RT. Cells were washed with 1% BSA in PBS and were incubated with 0.1 ug (or indicated amount) obiotinylayed anti hTREM2 antibodies for 4 hrs at RT. After incubation, cells were incubated with streptavidin-HRP (DY998, R&D) for 20 min at RT. The cells were washed and incubated with TMB Reagent (TM4500, Scytek) for 30 min at RT, followed by the addition of Stop Solution 2N Sulfuric Acid (DY994, R&D). OD was measured using an ELISA plate reader at dual wavelengths (450 nm and 570 nm). Biotinylation of Antibodies was done using EZ-Link™ Sulfo-NHS-LC-Biotinylation kit (Thermo Fisher Scientific) according to manufacturer's instructions.
as §3

[4] = target: T1, recombinant protein consisting of the …; test: direct ELISA, coated His-TREM2 0.5 ug/mL, Ab stock 1 mg/mL
Procedure: as §1

[5] = target: T1, recombinant protein consisting of the …; test: direct ELISA; highest dilution with S/B >= 2.1; remark: listed apart in the source
Procedure: as §1, §2

[6] = target: T1, recombinant protein consisting of the …; test: direct ELISA
Procedure: as §1

[7] = target: T4, recombinant protein consisting of the extracellular domain of human TREM2 fused to the His tag (UniProt Q9NZC2 19-174); test: SPR
T4 chain: T1 sequence

Binder	Titer [1] [dilution]	FACS positive/negative BMDM [2] [ratio]	sup ELISA positive/negative (293HEK) (soluble TREM2 protein) [ratio]	Cell based ELISA positive/negative [3] [ratio]	OD at dilution 1000 [4] [OD]	OD at dilution 3000 [4] [OD]	OD at dilution 9000 [4] [OD]	OD at dilution 27000 [4] [OD]	OD at dilution 81000 [4] [OD]	OD at dilution 243000 [4] [OD]	OD at dilution 729000 [4] [OD]	OD at dilution 2187000 [4] [OD]	OD at dilution 6561000 [4] [OD]	OD at dilution 19683000 [4] [OD]	Titer [5] [dilution]	direct ELISA positive/negative [6] [ratio]	Kd [7] [pM]
B1	2.19e+06	1.78	11	1.89	1.84	1.8	1.9	1.63	1.16	0.763	0.322	0.17	0.113	0.063	2.19e+06	31.5	–
B2	729000	1.16	10	1.38	1.83	1.89	1.69	1.31	0.849	0.432	0.222	0.133	0.102	0.067	729000	27.4	–
B3	2.19e+06	1.47	3.05	2.46	2.75	2.76	2.88	2.58	1.92	0.985	0.405	0.169	0.099	0.066	2.19e+06	35.1	–
B4	243000	2.58	27.9	1.91	2.59	2.49	1.98	0.843	0.375	0.179	0.099	0.068	0.07	0.053	243000	34.8	32.1
B5	2.19e+06	1.87	24.9	2.8	2.02	2.12	2.16	1.76	1.2	0.608	0.281	0.145	0.092	0.085	2.19e+06	33.4	0.0275
